Substitutions are numbered along the chain they refer to.
B1: 20E12 (antibody, V domains shown)
VH: EVNLVESGGGLVKPGGSLRLSCEASGFTFSYAWMSWVRQAPGKGLEWVGRIKSIADGGATDYAAPVRNRFTISRDDSRNTLYLEMHSLKTEDTAVYYCTTIPGNDAFDMWGQGTMVTVSS
VL: DIVLTQSPLSLSVTPGEPASISCRSSQSLLYSNGKNYLDWFLHKPGQSPQLLIYLGSNRASGVPDRFSGSGSGIDFILKISRVEAEDVGVYYCMQAQQTPITFGQGTRLEIK
notes: Hybridoma supernatant (AlivaMab mouse); captured/detected via mouse Fc
B2: 32G8 (antibody, V domains shown)
VH: B1 VH with A55T, A59V, T60I, F70C, A106D, T114R
VL: B1 VL
notes: as for B1
B3: 34E7 (antibody, V domains shown)
VH: B1 VH with A55N, A64S, T80M, M115L
VL: B1 VL with S26T, Y54F, N58I
notes: as for B1
B4: 20G5 (antibody, V domains shown)
VH: EVQLVESGGDLVKPGGSLRLSCAASGFTFTNAWMSWVRQAPGKGLEWVGRIKSKIDGGTTDYAAPVKGRFIISRDDSKNTLSLQMNSLKTEDTAMYYCTTAPGGPFDYWGQGSLVTVSS
VL: DIVLTQSPLSLPVTPGEPASISCRSSQSLLYSDRRNYLDWFLQKPGQSPHLLIYLGSYRASGVPDRFSGSGSGTDFTLKISRVEAEDVGVYYCMQALQIPITFGQGTRLEIK
notes: as for B1
B5: 26B9 (antibody, V domains shown)
VH: EVQLVESWGVLVKPGGSLRLSCAASGFIFNNAWMSWVRQAPGKGLEWIGRIKSKSDGGTTDYAAPVKDRFTISRDDSKDTLYLQMNGLKTEDTAVYFCTTAPGGPFDYWGQGTLVTVSS
VL: B4 VL with Y31H, S32R, R34G, R35F, H50Q, G56A, Y58S, G71D, I99T
notes: as for B1
B6: 30D8 (antibody, V domains shown)
VH: EVQLVESGGGLVKPGGSLRLSCEASGFTFSDAWMSWVRQAPGKGLEWVGRIKSKTDGGTTDYVVPLNGRFIISRDDSRNTLYLQLNNLKTEDTAVYYCTTVPGSYGYWGQGTLVTVSS
VL: DIVMTQSPLSLPVTPGEPASISCRSSQSLLHNKRNNYLDWFLQKPGQSPQLLIYLASNRASGVPDRFSGGGSGTDFTLKISRVEAEDVGVYYCMQAQQTPITFGQGTRLEIK
notes: as for B1
B7: h62G7-L6/EQ EGFRvIII specific CAR (other)
chain: DVVMTQSPLSLPVTLGQPASISCKSSQSLLYSNGKTYLNWFQQRPGQSPRRLIYQVSKLDSGVPDRFSGSGSGTDFTLKISRVEAEDVGVYYCGQDTHFPLTFGGGTKVEIKGGGGSGGGGSGGGGSGGGGSQVQLVQSGAEVKKPGASVKVSCKASGYTFTDYTLHWVRQAPGQGLEWMGGIWPITGGTTYNQKFKGRVTMTRDTSTSTVYMELSSLRSEDTAVYYCARGEAQGSWGQGTLVTVSSTTTPAPRPPTPAPTIASQPLSLRPEACRPAAGGAVHTRGLDFACDIYIWAPLAGTCGVLLLSLVITLYCKRGRKKLLYIFKQPFMRPVQTTQEEDGCSCRFPEEEEGGCELRVKFSRSADAPAYQQGQNQLYNELNLGRREEYDVLDKRRGRDPEMGGKPRRKNPQEGLYNELQKDKMAEAYSEIGMKGERRRGKGHDGLYQGLSTATKDTYDALHMQALPPR
notes: Chimeric antigen receptor on primary human T cells
B8: 30D8.HL scFv-Fc protein (Fc fusion)
chain: EVQLVESGGGLVKPGGSLRLSCEASGFTFSDAWMSWVRQAPGKGLEWVGRIKSKTDGGTTDYVVPLNGRFIISRDDSRNTLYLQLNNLKTEDTAVYYCTTVPGSYGYWGQGTLVTVSSGGGGSGGGGSGGGGSGGGGSDIVMTQSPLSLPVTPGEPASISCRSSQSLLHNKRNNYLDWFLQKPGQSPQLLIYLASNRASGVPDRFSGGGSGTDFTLKISRVEAEDVGVYYCMQAQQTPITFGQGTRLEIK
notes: HL: heavy-chain variable domain at the N-terminus; not shown: human IgG1 Fc moiety
B9: 30D8.LH scFv-Fc protein (Fc fusion)
chain: DIVMTQSPLSLPVTPGEPASISCRSSQSLLHNKRNNYLDWFLQKPGQSPQLLIYLASNRASGVPDRFSGGGSGTDFTLKISRVEAEDVGVYYCMQAQQTPITFGQGTRLEIKGGGGSGGGGSGGGGSGGGGSEVQLVESGGGLVKPGGSLRLSCEASGFTFSDAWMSWVRQAPGKGLEWVGRIKSKTDGGTTDYVVPLNGRFIISRDDSRNTLYLQLNNLKTEDTAVYYCTTVPGSYGYWGQGTLVTVSS
notes: LH: light-chain variable domain at the N-terminus; not shown: human IgG1 Fc moiety
B10: 20E12.HL scFv-Fc protein (Fc fusion)
chain: EVNLVESGGGLVKPGGSLRLSCEASGFTFSYAWMSWVRQAPGKGLEWVGRIKSIADGGATDYAAPVRNRFTISRDDSRNTLYLEMHSLKTEDTAVYYCTTIPGNDAFDMWGQGTMVTVSSGGGGSGGGGSGGGGSGGGGSDIVLTQSPLSLSVTPGEPASISCRSSQSLLYSNGKNYLDWFLHKPGQSPQLLIYLGSNRASGVPDRFSGSGSGIDFILKISRVEAEDVGVYYCMQAQQTPITFGQGTRLEIK
notes: as for B8
B11: 32G8.HL scFv-Fc protein (Fc fusion)
chain: B10 chain with A55T, A59V, T60I, F70C, A106D, T114R
notes: as for B8
B12: 20E12.LH scFv-Fc protein (Fc fusion)
chain: DIVLTQSPLSLSVTPGEPASISCRSSQSLLYSNGKNYLDWFLHKPGQSPQLLIYLGSNRASGVPDRFSGSGSGIDFILKISRVEAEDVGVYYCMQAQQTPITFGQGTRLEIKGGGGSGGGGSGGGGSGGGGSEVNLVESGGGLVKPGGSLRLSCEASGFTFSYAWMSWVRQAPGKGLEWVGRIKSIADGGATDYAAPVRNRFTISRDDSRNTLYLEMHSLKTEDTAVYYCTTIPGNDAFDMWGQGTMVTVSS
notes: as for B9

Target: T1, 8-histidine tagged recombinant wild-type protein EGFRwt (UniProt P00533 25-645, limits assumed)
T1 construct: not shown: 8-histidine tag
Test: SPR, captured by anti-mouse Fc

Binder	binding result
B1	no binding (tested: 1000 nM)
B2	no binding (tested: 1000 nM)
B3	no binding (tested: 1000 nM)
B4	no binding (tested: 1000 nM)
B5	no binding (tested: 1000 nM)
B6	no binding (tested: 1000 nM)

Target: T2, Monomeric 8-histidine tagged human EGFRvIII extracellular domain (human, UniProt P00533 298-645)
T2 construct: Analyte in all SPR assays; not shown: 8-histidine tag
Test: SPR, captured by anti-mouse Fc, 37 C
From the text: To generate human antibodies against EGFRvIII, transgenic AlivaMab mice (Ablexis LLC, San Francisco, Calif.) were immunized with alternating schedule of paraformaldehyde-fixed rat glioblastoma cell line expressing EGFRvIII, F98-npEGFRvIII (American Type Culture Collection, Manassas, Va.) and peptides (SEQ ID NO: 227: […]) directed to the junction region in EGFRvIII. Hybridomas were generated using standard techniques. To determine the binding affinity and specificity of these hybridomas to EGFRvIII, antibodies in culture supernatants were captured by anti-mouse Fc using Biacore™ T200 biosensor equipped with anti-mouse Fc coupled CM4 sensor chips (Biacore™ AB, Uppsala, Sweden—now GE Healthcare). Monomeric 8-histidine tagged human EGFRvIII extracellular domain was then injected as the analyte at 10-fold dilution series starting with top concentration 1000 nM. Affinity of anti-EGFRvIII antibodies towards human EGFRvIII was measured at 37° C.

Binder	Kd [nM]	koff [s⁻¹]	kon [M⁻¹ s⁻¹]
B1	353	0.0141	39900
B2	1790	0.0122	6820
B3	340	0.0128	37700
B4	231	0.0289	125000
B5	244	0.032	131000
B6	172	0.0277	161000

Target: T3, EGFR-mFc (human; mouse, UniProt P00533 25-645)
T3 construct: extracellular domain; Produced in HEK293 cells; also called recombinant EGFR-mFc; not shown: mouse IgG1-Fc domain
Test: flow cytometry, CAR T cells stained with mFc fusion protein, Day 4
From the text: To determine target binding specificity of the CARs, recombinant proteins EGFRvII-mFc and EGFR-mFc, which comprise of the extracellular domain of either human EGFRvIII or human wild-type EGFR, respectively, fused with mouse IgG1-Fc domain, were produced in HEK293 cells. […]

Binder	binding result
B7	no binding

Target: T1, 8-histidine tagged recombinant …
Test: SPR, captured by anti-human Fc, 25 C

Binder	binding result
B8	no binding (tested: 1000 nM)
B9	no binding (tested: 1000 nM)
B10	no binding (tested: 1000 nM)
B11	no binding (tested: 1000 nM)
B12	no binding (tested: 1000 nM)

Target: T4, human EGFRvIII expressed on cells (human, UniProt P00533 298-1210)
T4 construct: the F98-npEGFRvIII line was obtained from ATCC and its construct is not described; also called F98-npEGFRvIII; F98-EGFRvIII
Test: flow cytometry, F98-npEGFRvIII cells

Binder	% positive [%]	MFI
B1	97.9	3980
B2	98.6	3730
B3	98.5	4130
B4	98.5	4640
B5	98.6	5400
B6	98.6	5160

Target: T4, human EGFRvIII expressed on cells
Test: flow cytometry, F98-npEGFRvIII against F98, F98-EGFRwt and A431 cells

Binder	fold MFI on EGFRvIII expressing cell line over non-expressing cell lines [fold]
B1	≥ 10
B2	≥ 10
B3	≥ 10
B5	≥ 10
B6	≥ 10

Target: T2, Monomeric 8-histidine tagged human …
Test: SPR, scFv-Fc captured by anti-human Fc, 37 C
Method: The scFv fragment was then fused to human IgG1 Fc moiety to facilitate recombinant expression and purification. Affinities of the scFv-Fc fusion proteins were measured at 37° C. on a surface plasmon resonance Biacore™ T200 biosensor equipped with an anti-human Fc coupled CM4 sensor chip (GE Healthcare Inc., Piscataway, N.J.) as described above. scFv-Fc proteins were captured by anti-human Fc. Monomeric 8-histidine tagged human EGFRvIII extracellular domain was then injected as the analyte at 10-fold dilution series starting at 1000 nM.

Binder	Kd [nM]	koff [s⁻¹]	kon [M⁻¹ s⁻¹]
B8	225	0.053	230000
B9	349	0.038	110000
B10	894	0.019	21000
B11	1490	0.013	8700
B12	932	0.015	16000
